Assay results reported in publication PMC12096953, “Insights into heme degradation and hydrogen peroxide-induced dimerization of human neuroglobin” (Bioscience Reports, 2025).

B1: wild-type human neuroglobin (natural protein, UniProt Q9NPG2 1-151, looked up)
chain: MERPEPELIRQSWRAVSRSPLEHGTVLFARLFALEPDLLPLFQYNCRQFSSPEDCLSSPEFLDHIRKVMLVIDAAVTNVEDLSSLEEYLASLGRKHRAVGVKLSSFSTVGESLLYMLEKCLGPAFTPATRAAWSQLYGAVVQAMSRGWDGE
notes: human neuroglobin (hNgb), described as a protein of 151 amino acids; Heme b protein; The dimers seen arise after H2O2 treatment and are held by covalent Tyr-Tyr links; also called hNgb; wild-type hNgb
B2: human neuroglobin Y44AC46AC55A variant (natural protein, UniProt Q9NPG2 1-151, looked up)
chain: MERPEPELIRQSWRAVSRSPLEHGTVLFARLFALEPDLLPLFQANARQFSSPEDALSSPEFLDHIRKVMLVIDAAVTNVEDLSSLEEYLASLGRKHRAVGVKLSSFSTVGESLLYMLEKCLGPAFTPATRAAWSQLYGAVVQAMSRGWDGE
notes: human neuroglobin (hNgb) with Y44A, C46A and C55A; also called triple variant
B3: human neuroglobin Y44A variant (natural protein, UniProt Q9NPG2 1-151, looked up)
chain: MERPEPELIRQSWRAVSRSPLEHGTVLFARLFALEPDLLPLFQANCRQFSSPEDCLSSPEFLDHIRKVMLVIDAAVTNVEDLSSLEEYLASLGRKHRAVGVKLSSFSTVGESLLYMLEKCLGPAFTPATRAAWSQLYGAVVQAMSRGWDGE
notes: human neuroglobin (hNgb) with Y44A; also called hNgb Y44A
B4: human neuroglobin Y44F variant (natural protein, UniProt Q9NPG2 1-151, looked up)
chain: MERPEPELIRQSWRAVSRSPLEHGTVLFARLFALEPDLLPLFQFNCRQFSSPEDCLSSPEFLDHIRKVMLVIDAAVTNVEDLSSLEEYLASLGRKHRAVGVKLSSFSTVGESLLYMLEKCLGPAFTPATRAAWSQLYGAVVQAMSRGWDGE
notes: human neuroglobin (hNgb) with Y44F

How the values were obtained:
[1] = molecular target: the molecule itself; experiment: SEC-MALS; HPLC-SEC-PDA-MALS, Superdex 200 10/300 GL, 1x PBS pH 7.4, 25°C, detection at 412 nm; 1 μg/μL protein incubated 20 h at 4°C with different molar excess of H2O2 before the run; monomer to covalent dimer
[2] = molecular target: the molecule itself; experiment: SEC; HPLC-SEC of wild-type hNgb, 1 µg/µL, 15-fold H2O2, 20 h at 4°C, with or without the spin trap MNP (10 µg/µL)

| Protein | stoichiometry N [1] | percent dimerization (15-fold H2O2, with MNP) [2] | percent dimerization (15-fold H2O2, without MNP) [2] |
| --- | --- | --- | --- |
| B1 | 2 | 8.1% | 18.7% |
| B2 | 2 |  |  |
| B3 | 2 |  |  |
| B4 | 2 |  |  |
